The source of these data is patent publication US20220411531A1 (SUMGEN MAB BEIJING BIOTECH, published 2022).

As a reminder, the Kd is the equilibrium constant for the complex coming apart. Read a low Kd as a tighter complex. What is called koff is the first-order rate constant of dissociation. A low value points to slow dissociation. For orientation: kon means a measure of how fast the partners come together. A higher kon goes with faster complex formation. What is called EC50 (read off the curve) is the concentration at which the effect is half-maximal.

Experiment [1] concerns the target T1, MER-His (ACRO Biosystems) (UniProt Q12866 21-499, limits assumed).
T1 construct: Bought reagent; not shown: His tag
T1 sequence (looked up): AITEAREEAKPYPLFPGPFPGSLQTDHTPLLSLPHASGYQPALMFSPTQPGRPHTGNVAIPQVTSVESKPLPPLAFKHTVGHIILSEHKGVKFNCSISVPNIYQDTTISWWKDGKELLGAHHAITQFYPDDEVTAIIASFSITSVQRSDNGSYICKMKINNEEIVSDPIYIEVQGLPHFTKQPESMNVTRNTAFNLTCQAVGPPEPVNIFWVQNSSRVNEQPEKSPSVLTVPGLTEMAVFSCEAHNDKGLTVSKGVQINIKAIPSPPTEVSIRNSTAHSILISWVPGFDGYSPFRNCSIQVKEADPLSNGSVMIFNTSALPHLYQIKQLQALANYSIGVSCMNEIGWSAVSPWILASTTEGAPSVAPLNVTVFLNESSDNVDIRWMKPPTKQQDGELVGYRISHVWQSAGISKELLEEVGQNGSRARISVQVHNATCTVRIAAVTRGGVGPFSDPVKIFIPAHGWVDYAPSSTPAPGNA
The experiment is described as follows: ELISA, MER-His coated at 1 µg/ml, anti-human IgG Fab-HRP, OD450. The protocol: AXL, TRYO3, and MER are all members of the TYRO3 receptor tyrosine kinase subfamily. To verify the recognition specificity of the antibodies 6G12M11, 6G12M21, 6G12M31 and 6G12M41, the binding ability of these antibodies to other members of the AXL family is tested by the ELISA method.
(§1) TYRO3-Fc (ACRO Biosystems), MER-His (ACRO Biosystems), and AXL-His (Sino Biological Inc.) each were coated at 1 μg/ml on an ELISA strip, which was held at 4° C. overnight. After the ELISA strips were washed with PBST, 10% fetal bovine serum was added to the ELISA strip, which was blocked for 1 hour at 37° C. Antibodies […], 6G12M21, 6G12M31 and 6G12M41 were added to react at 37° C. for 1 hour. After the ELISA strips were washed with PBST, horseradish peroxidase-labeled goat anti-human IgG Fab secondary antibodies (Goat Anti-Human IgG (Fab′)₂ (HRP), Abcam) were added to react for 30 minutes at 37° C. The ELISA strips were washed 5 times with PBST, and patted and dried on absorbent paper to remove residual droplets as much as possible. 100 μl of TMB (eBioscience, #85-00-420) was added to each well, and the ELISA strips were held for 1.5 min at room temperature (20±5° C.) in the dark. 100 μl of 2N H₂SO₄ stop solution was added to each well to terminate substrate reaction. The OD value was read at 450 nm by a microplate reader to analyze the binding ability of antibodies to the proteins.

Experiment [2] concerns the target T2, AXL-His (Sino Biological Inc., 6x His labels, molecular weight 47.5 Kda) (UniProt P30530-2 26-440, limits assumed).
T2 construct: Bought reagent; also called target antigen AXL-His; target antigen AXL; not shown: 6x His tag
T2 sequence (looked up): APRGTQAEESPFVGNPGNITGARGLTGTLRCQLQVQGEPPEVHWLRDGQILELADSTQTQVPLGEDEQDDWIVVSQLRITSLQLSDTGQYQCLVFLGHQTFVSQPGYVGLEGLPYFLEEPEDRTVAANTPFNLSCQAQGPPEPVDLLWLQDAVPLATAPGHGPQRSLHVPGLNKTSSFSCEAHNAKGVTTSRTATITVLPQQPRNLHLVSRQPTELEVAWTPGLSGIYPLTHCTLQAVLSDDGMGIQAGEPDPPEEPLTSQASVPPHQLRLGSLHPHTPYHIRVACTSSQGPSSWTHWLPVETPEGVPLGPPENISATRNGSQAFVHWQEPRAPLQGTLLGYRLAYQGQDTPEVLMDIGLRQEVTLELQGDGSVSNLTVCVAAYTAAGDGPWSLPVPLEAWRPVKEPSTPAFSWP
Briefly: SPR (Biacore T-200), antibody captured on chip, AXL-His as analyte. The protocol: In this test, the affinity of AXL-His to each of the antibodies 6G12M11, 6G12M21, 6G12M31, and 6G12M41 was detected by the surface plasmon resonance technology. The test instrument used was BIACOR biomacromolecule interaction instrument (GE Healthcare, T-200). The antibodies 6G12M11, 6G12M21, 6G12M31, and 6G12M41 were immobilized on the surface of a chip by an antibody capturing method, and with all the concentrations set to 0.5 μg/mL, were injected for 60 seconds at a flow rate of 10 μL/min. The prepared AXL-His (Sino Biological Inc., 6× His labels, molecular weight: 47.5 Kda) as a mobile phase was let to flow through the surface of the chip under 5 concentration gradients (8, 4, 2, 1, 0.5 μg/mL) respectively for interaction determination. The AXL-His underwent association for 120 s and dissociation for 1800 s at the flow rate of 30 μL/min.
Background: Surface plasmon resonance follows binding to a sensor surface in real time, without labels.

For experiment [3], the target named is T2, AXL-His (Sino Biological Inc., 6x His …). The experiment is described as follows: ELISA, AXL-His coated at 1 µg/ml, anti-human IgG Fab-HRP, OD450. The method, then:
as §1
Background: In an ELISA, binding on a coated surface is turned into a signal by an enzyme label.

B1: antibody 6G12M31 (antibody, V domains shown)
VH: QVQLVQSGPGLVKPSQSLSLTCSVTGFSISSGYYWNWIRQFPGQKLEWMGYRSYDGSNNYDPSLKNRISITRDTSKNQFFLKLNSVTSEDTATYYCARGWLLHYTMDYWGQGTTVTVSS
VL: DIVMTQSPSSVSVTLGQSASISCRSSRSLLHSNGFTYLYWYLQKPGQSPQLLIYQMSNLASGVPDRFSGSGSGTDFTLKISRVEAEDVGVYYCGQNLELPLTFGGGTKLEIK
Consider B1, for which the binding result in experiment [1] is reported as “no binding (tested: about 1 µg/mL)”. Further, in experiment [2], the Kd was found to be 29.2 nM, the koff worked out at 0.00116 s⁻¹ and the kon stood at 39700 M⁻¹ s⁻¹. Also, the “EC50 (read off the curve)” value in experiment [3] was approximately 0.03 µg/mL.

B2: antibody 6G12M11 (antibody, human IgG1, kappa, V domains shown)
VH: QVQLVQSGPGLVKPSQSLSLTCAVTGFSISSGYYWNWIRQFPGQKLEWMGYRSYDGSNNYNPSLKNRISITRDTSKNQFFLKLNSVTSEDTATYYCARGWLLHYTMDYWGQGTTVTVSS
VL: EIVMTQSPSSVSVTLGQSASISCRSSRSLLHSNGFTYLYWYLQKPGQSPQLLIYQMSNLASGVPDRFSGSGSGTDFTLKISRVEAEDVGVYYCGQNLELPLTFGGGTKLEIKR
Take B2: the binding result in experiment [1] was “no binding (tested: about 1 µg/mL)”. Moreover, in experiment [2], binding was characterised by a dissociation constant (Kd) of 11.7 nM, the koff was 0.00114 s⁻¹ and the kon came to 97400 M⁻¹ s⁻¹. The “EC50 (read off the curve)” value in experiment [3] was approximately 0.03 µg/mL.

B3: antibody 6G12M21 (antibody, human IgG1, kappa, V domains shown)
VH: QVQLVQSGPGLVKPSQSLSLTCSVTGFSISSGYYWNWIRQFPGQKLEWMGYRSYDGSNNYNPSLKNRISITRDTSKNQFFLKLNSVTSEDTATYYCARGWLLHYTMDYWGQGTTVTVSS
VL: DIVMTQSPSSVSVTLGQSASISCRSSRSLLHSNGFTYLYWYLQKPGQSPQLLIYQMSNLASGVPDRFSGSGSGTDFTLKISRVEAEDVGVYYCGQNLELPLTFGGGTKLEIKR
Turning to B3, in experiment [1], the binding result is reported as “no binding (tested: about 1 µg/mL)”. In experiment [2], this molecule gave a Kd of 10.2 nM, a koff of 0.00114 s⁻¹ and a kon of 112000 M⁻¹ s⁻¹. In addition, the “EC50 (read off the curve)” value in experiment [3] was approximately 0.03 µg/mL.

B4: antibody 6G12M41 (antibody, V domains shown)
VH: QVQLVQSGPGLVKPSQSLSLTCSVTGFSISSGYYWNWIRQFPGQKLEWMGYRSYDGSNNYGPSLKNRISITRDTSKNQFFLKLNSVTSEDTATYYCARGWLLHYTMDYWGQGTTVTVSS
VL: DIVMTQSPSSVSVTLGQSASISCRSSRSLLHSNGFTYLYWYLQKPGQSPQLLIYQMSNLASGVPDRFSGSGSGTDFTLKISRVEAEDVGVYYCGQNLELPLTFGGGTKLEIK
With B4, the binding result in experiment [1] is listed as “no binding (tested: about 1 µg/mL)”. In experiment [2], the Kd was 28.7 nM, the koff came to 0.00119 s⁻¹ and the kon was 41500 M⁻¹ s⁻¹. Also, the “EC50 (read off the curve)” value in experiment [3] is approximately 0.03 µg/mL.
